Experimental data: the DeepSol protein solubility set

Test: soluble on expression in E. coli; label from the status in PepcDB or PDB records

Sequence | soluble on expression in E. coli
MEKKTANDVVTLARAQDRLTTLEYIEAIFEDFLEFHGDRYFADDLAVVGGVATLQGKPVTVVGIQKGRNLPENIERNFGSPNPEGYRKALRLMKQAEKFNRPVITFVNTAGAYCGIGAEERGEGEAIAQNLLEMSDLKVPIISVIIGEGGSGGALALAVADEVWMLEHTIYAVLSPEGFASILWKDGSRAKEAAELMKITATELKELAIVDKVIPEVMNGQPLEQAKINRMLQKAFISKLTELAKLDTETLLEKRYQRFRKY | not soluble
KGSYDLIFGDKNTKNYYAKFAKDHQTHLYQKIKESKDEQFRFVETQETTNNLGN | soluble
AEKQVTAGRHTYALPELFLVMATQNPIEQEGTYPLPEAQLDRFLLHLEVDYPDAEHELAILRINRGEAKGECSIERPSLSQQDIFTARQEVLDIHMAEAIEQYIVRLVMATRRASEYDSELDKWLAMGVSPRATIALDRCARAHAWLAGRDFVSPEDVQAMAYPVLRHRLLLSYHAQAEGVTSNQVIDKLLNLVGSA | not soluble
MSSKSTKRAKIEDPKDNVFMVEKVLDKRTGKAGRDEFLIQWQGFPESDSSWEPRENLQCVEMLDEFEREFSKREKPIRKRHSQKPEPSEDQADPEEDKDEKKETNQNDKFSLEGKQLKCIVGLTKGPGELHFLCKFSDDTARLLPAKEVNSRYPSQVIRYYESKLTIQDPKADEL | not soluble
MGSDKIHHHHHHMEYINEVTINEAIIHVLDNSSEGVVFNEVELELNEETYEYILKHIQKCLKDEELKYAVFNVERNLAKELSQEYLDGKSDIVSVSKELASQLFVIMKSNGNIPSCDLLTAAITTEYGRMLVVLKMDYVKNYTHNIDVVDDKVEINIIPQFIGLPSSGQKIQKCAFIKPIREENNFDLMVIDKNSGKKDEDEYGSNYFINNYLGCKIINNERDLTKTFVKSAEKWTQKNLKDNADAAELVRTSIKKRLKEDDSININEVSDEIFGENKEAKDNFVEFIKKQGIEEKIELDKQWVENKMKRTRLKIDKDIDLYINEETYNDSSRFEIKRNGDGTINMIIKQVRNYVEK | not soluble
MGSDKIHHHHHHAQQKVEILPFGNMDQWVTREIKESGIIGGNTKKVYAIGPTETIVGAKPYANKGGSPWGTSNVMARVSGITKTNTSVFPETRGDGFCARLDTRMESVKVLGIVDITVLAAGSMFLGTVHEPIKSTKNPNKMLQMGIPFTDRPSAIQFDYKVKMSDRENRIRATGFSKITDVPGKDFPAVILLLQKRWEDAKGNVYAKRIGTMVNYYYHSTDWKNGSKYDIMYGDITKDPAYKAHMMRLQASEYFTVNSKGESVPIHEVAWGEADDVPTHMILQFTSSHGGAYIGSPGNSLYIDNVKLIY | not soluble
GMFNESDAPQPPKVLSTPLEIAANLRQLQESHDPLIITFHDRSHRFQSYVVHVDRESNTLALDEMIPRDGEKFIENGEHFRVEGFHDGVRIAWECDHALKISEVDGHRCYSGPLPQEVTYHQRRNAFRAALKLSQLVDIILDGAHLKGNGAMRGKLLDISATGCKLRFEGNVEDRLQLGQVYERFKAGNPLGLVDTMVELRHLHYEERINTTFAGVRFHNLSGQAQRKIESFVYQLQREARRFDKDDY | soluble
MGSDKIHHHHHHMTEQVTRRDVLGTGASVLGSLAIGSTTASGALQTDGTTVTFLHDTHVHGRFANASAGELSVARYFGLMNEITEDADTTLRVGNGDDLASSVLSAVFDGRHVVSTFNAGGLDFDTFGNHDFDMGPEVLRERVSDSLFTWVSANVREDGSVFAAEQGAQQYVLTDVGDVTLGVTGLITPEAPEVTSIGENTDVLAPASALQNVTERMRADGADAVIVLSHLASETARTVAEEVDGVDAIIGDHAASLLEEPEVINDTVLSFVGDEYEYLGELALGIDGSGVTDHEFVLHNVGESSAGTDPFVSLVQDHYETQLERQLDVVIGETTQPLDTRQSVVRARESNMGNFVADTIRTDVEADTALMNGGGIRTDRLYFEDASEDDPVAITRRVVVDILPFPNNVVELEVTGETLLAALENGVSRVEAGAGRFPQVSGITYTYDPTAESGDRIVDATAGGDPIDPDATYTLATNDFVSGGGDGYDMLSDATVLVSSNEGALLSDLIINTIEEQGTISPTTEGRITRQSEES | not soluble
MGHHHHHHSHANCAENEEGCTPLHLACRKGDGEILVELVQYCHTQMDVTDYKGETVFHYAVQGDNSQVLQLLGRNAVAGLNQVNNQGLTPLHLACQLGKQEMVRVLLLCNARCNIMGPNGYPIHSAMKFSQKGCAEMIISMDSSQIHSKDPRYGASPLHWAKNAEMARMLLKRGCNVNSTSSAGNTALHVAVMRNRFDCAIVLLTHGANADARGEHGNTPLHLAMSKDNVEMIKALIVFGAEVDTPNDFGETPTFLASKIGRLVTRKAILTLLRTVGAEYCFPPIHGVPAEQGSAA | not soluble
MARQLRAEQTRATIIGAAADLFDRRGYESTTLSEIVAHAGVTKGALYFHFAAKEDLAHAILEIQSRTSRRLAKDLDGRGYSSLEALMRLTFGMARLCVQGPVLRAGLRLATAGVPVRPPLPHPFTEWREIATSRLLDAVRQSDVHQDIDVDSVAHTLVCSVVGTRVVGGTLEPAGREPRRLAEMWYILIRGMVPVTRRARYVTLAARLEQETGTA | soluble
MGSDKIHHHHHHMTTHLTGTRDEWLTARRALLDAEKTLTRHSDALARRREALPWVRVDKTYRFDTEHGAATLDDLFDGRSQLLVYHFMFGPDYKAGCPSCSALADGFDGFAVHLANHDVTLAAVSRAPLAKLLAYRQRMGWRFPWASSEGGAFNFDFNVSFTEAQQRTGDVEYNYARAAHAMDVDPPPAAVAQFAATCGTDAATYARDRPGMSAFVREDGVVYHTYSTYARGLDALWGMYAWLDRAPLGRNETGVWWRRHDEYARD | not soluble
SDFPPTKLDYHVDMFNLQSHSRFLSLFKAQDGRIALILESTVFHPQGGGQPSDTGLIVFSGSDLKFSVQDVRSKDGIVLHYGVFEGSNPESGIDSEKGKEVYLTVDESRRKLNSRLHSAGHLLDMCMQKVGLGHLEPGKGYHFPDGPFVEYKGSVPQEEFQVKQKELEAEANELISKGGKVYAAILPYEEASVLCGGSLPDYISKGSTPRIIKLGDSPGCPCGGTHVSNLSDIISMKMRTKKGMTKVFYTIAS | soluble
GGTAYWKNPDQFTAFNTGLHALLREKSYNFFLLGEPRADIYGDNPIGGEASQGMERLPFNTINKENVGISNYGDMYKIINQINQMIAKTTETTILTEATQNYYLGEAYGMRAYLYFHLLRSWGDVVLYLDYTEGQNLDLSNITKGVSPATEVMEQIKKDIQASENAFGSDYSFKLGRHFWSAAATQMLKGEAYLWSGRQMNGGNSDYTIAKNAFENVKKADVGLVTSSFKDIFSFENKKNKEMIFTIHNGKDEYEMWGGYYRMRLIPAQDKMVKIYCDENGNSFVGTPDAQLNGLTQLQVRREFYFKGFRNNDTRWTTSLKAVYKKDAQGVVSYFGPITYKFQGTMLEGGSTRSFLDDFPIYRYADCLLQLAMAKVLLGEDPTEEINAVRERAYGSKYFNEHKAEIAYPNDNDPEFYTDNKWMKPDNAGALEAILKERLREFMFEGKRWYDIRLLGWDYVHQYSSAEQSRLLWPIDAGTLTNNSALKQTPGYE | soluble
EFGEPAPANAESSSVAALKIGKVGNFGDCTGTLVADQWVLTARHCLESVNNEGTQARIGGKVYDADSWALSPVSDAGLLHLTEKVTDATPAKVSRDIPTPGQTGTLYGWSSSSSLARSGQLPMAKMVVKELLGGGPSQGTPSEGAPGGATPGEVAPGGAAPSETVPSESQAESIPAGTESIPADGAMMPMIQSAILDAHSVSGAGMQGGDSGGPFFVDGKLAGLATAGTANGDPDLPSPSAAITTLAGTADWIDGVTSGRDTKSVLTAENTPAPPKTIQTSADH | not soluble
GMSWEKSGKEGSLLRWYDVMEAERYEYTVGPAGEQFFNGLKQNKIIGSKCSKCGRIFVPARSYCEHCFVKIENYVEINKDEAYVDSYTIIYNDDEGNKLAQPVYIALIRFPNIEGGLLCYAEGNVKVGAKAKILSFQWPLRVKVD | soluble
MFSVNNTHSSVSCSPSINSNSTSNEHYLRILTEWEKNSSPGEERGIAFNRLSQCFQNQEAVLNLSDLNLTSLPELPKHISALIVENNKLTSLPKLPAFLKELNADNNRLSVIPELPESLTTLSVRSNQLENLPVLPNHLTSLFVENNRLYNLPALPEKLKFLHVYYNRLTTLPDLPDKLEILCAQRNNLVTFPQFSDRNNIRQKEYYFHFNQITTLPESFSQLDSSYRINISGNPLSTRVLQSLQRLTSSPDYHGPQIYFSMSDGQQNTLHRPLADAVTAWFPENKQSDVSQIWHAFEHEEHANTFSAFLDRLSDTVSARNTSGFREQVAAWLEKLSASAELRQQSFAVAADATESCEDRVALTWNNLRKTLLVHQASEGLFDNDTGALLSLGREMFRLEILEDIARDKVRTLHFVDEIEVYLAFQTMLAEKLQLSTAVKEMRFYGVSGVTANDLRTAEAMVRSREENEFTDWFSLWGPWHAVLKRTEADRWAQAEEQKYEMLENEYSQRVADRLKASGLSGDADAEREAGAQVMRETEQQIYRQLTDEVLALRLSENGSRLHHS | not soluble
MGSDKIHHHHHHMSGSKIKIALFNDTDFRVNIGCRLTSQGLKQQILDAFPAAEITSIGFNFAAFRKEFPKSTSAGGYELSDIETRLSTAYGEGAVDHIRAADFVILQPEGSLDHRTTAEGLATFFTPILTARKLGKPFAVLNGTIPIYEGERSDYLKGLFRELGHVAARDEISAEYYGIEFLADAAFLRISPAPVADRDGCLITTGARNNAEEDVEILKAALKICEAWKLRPVVLTHAVERFSPYEAEIIGRGGIFAETASIEHAAETISKCRLHIGGRYHMAIFSLLCNVPSLLFDVKTHKNQWLERYSPLITLVHPHTDLDAAAAAVLSGGVSQGHPGSTAAEKYVHFLKRAMAEQPL | not soluble
MTTKPPIERIMYIELRTSLEMFRSDLVDLEALANAAKEALEQLPYIPKNPCGKGEDDDPLSGPESALRTGRLCGLVCCTATAAEGALSTCSKLIDWAYANEPEGVDDAVLADDIDGDDDDDDEGSGSNGANGGGGANGSGNGSNGSGNGGPPDGGVESAAPAGSTELAEARPSRGGIALDLPPAHAPHGAPVA | not soluble
VFLGKTSPDFNLGWSNSLSYKGFGLSFLINGRFGGVVTSSTQAILDRFGVSKASAEARDAGGVLLPGQGRVDAQSYYQLIGTGDYTTSGYYVYSATNIRLQELTLSYRFPDLWFKNVLKDVTLSFIANNPWMLYSKAPHDPELTPSVGTYGQGNDYFMQPSVRSFGFGIKFKL | not soluble
NSLSTDMSVNRDNRTITSSIMRVSNSSELIQFKNKTAPYFSEKRNVEVNINGVAKDIYGRQIVCRHLASYWEMNFMETNGKVNYQLLSTPDAIAKNVCLEKTEDFSKSPAYIYFVENKKWGTVITNFFYNMKKNGDFVRTLSACTLNHQMALGLKIKRVQESEKWVVQFFDPNRTVTHKRTVFTCDSHFELSQLSAKDFFDDFYWKIYGLEQPGQVIFEDRHNSPLTNTVKLLPDELINSRVIYHAITKNLTEVLFILMEKYKNGEISQSKLVNLLATRSSDGTPAFYIALQNGYSDIIQVYGKILNMCNLSQETILTLLAAVGANNVPGLCMSFMNGHVDTIKAYGEIVFKTPLTSDKRLYLLAAKDSHDLPGLFFALQNGHADSIRMFGSLLNKKMLSSEQIKELLKVKHGLFMALQNGHTKAIMAYGDILKILPPHQEYIDELLWIKNPNGTSGLFMAFYNGHTETIRAFCNILKNYSFTTRRLVEMLSATNKDGIPGVFVSVVNRDKETILEYCRIIKENNLEPDTIAEQFSKKMKKTFIEIINRFNHFL | soluble
MAHHHHHHMSDEDHDFAHQGGGDNASKTYPMAAGALKKGGYVCINGRPCKVIDLSVSKTGKHGHAKVSIVATDIFTGNRLEDQAPSTHNVEVPFVKTFTYSVLDIQPNEDPSLPSHLSLMDDEGESREDLDMPPDAALATQIKEQFDSGKEVLVVVVSAMGTEQVLQTKNAAEK | soluble
